Results: publication PMC7367873, “Dissecting the sequence determinants for dephosphorylation by the catalytic subunits of phosphatases PP1 and PP2A” (Nature Communications, 2020)

B1: MYO1B (protein, UniProt O43795 1-1136, looked up)
Unconventional myosin-Ib: MAKMEVKTSLLDNMIGVGDMVLLEPLNEETFINNLKKRFDHSEIYTYIGSVVISVNPYRSLPIYSPEKVEEYRNRNFYELSPHIFALSDEAYRSLRDQDKDQCILITGESGAGKTEASKLVMSYVAAVCGKGAEVNQVKEQLLQSNPVLEAFGNAKTVRNDNSSRFGKYMDIEFDFKGDPLGGVISNYLLEKSRVVKQPRGERNFHVFYQLLSGASEELLNKLKLERDFSRYNYLSLDSAKVNGVDDAANFRTVRNAMQIVGFMDHEAESVLAVVAAVLKLGNIEFKPESRVNGLDESKIKDKNELKEICELTGIDQSVLERAFSFRTVEAKQEKVSTTLNVAQAYYARDALAKNLYSRLFSWLVNRINESIKAQTKVRKKVMGVLDIYGFEIFEDNSFEQFIINYCNEKLQQIFIELTLKEEQEEYIREDIEWTHIDYFNNAIICDLIENNTNGILAMLDEECLRPGTVTDETFLEKLNQVCATHQHFESRMSKCSRFLNDTSLPHSCFRIQHYAGKVLYQVEGFVDKNNDLLYRDLSQAMWKASHALIKSLFPEGNPAKINLKRPPTAGSQFKASVATLMKNLQTKNPNYIRCIKPNDKKAAHIFNEALVCHQIRYLGLLENVRVRRAGYAFRQAYEPCLERYKMLCKQTWPHWKGPARSGVEVLFNELEIPVEEYSFGRSKIFIRNPRTLFKLEDLRKQRLEDLATLIQKIYRGWKCRTHFLLMKKSQIVIAAWYRRYAQQKRYQQTKSSALVIQSYIRGWKARKILRELKHQKRCKEAVTTIAAYWHGTQARRELRRLKEEARNKHAIAVIWAYWLGSKARRELKRLKEEARRKHAVAVIWAYWLGLKVRREYRKFFRANAGKKIYEFTLQRIVQKYFLEMKNKMPSLSPIDKNWPSRPYLFLDSTHKELKRIFHLWRCKKYRDQFTDQQKLIYEEKLEASELFKDKKALYPSSVGQPFQGAYLEINKNPKYKKLKDAIEEKIIIAEVVNKINRANGKSTSRIFLLTNNNLLLADQKSGQIKSEVPLVDVTKVSMSSQNDGFFAVHLKEGSEAASKGDFLFSSDHLIEMATKLYRTTLSQTKQKLNIEISDEFLVQFRQDKVCVKFIQGNQKNGSVPTCKRKNNRLLEVAVP
B2: CPM (protein, UniProt P14384 18-423, looked up)
Carboxypeptidase M: LDFNYHRQEGMEAFLKTVAQNYSSVTHLHSIGKSVKGRNLWVLVVGRFPKEHRIGIPEFKYVANMHGDETVGRELLLHLIDYLVTSDGKDPEITNLINSTRIHIMPSMNPDGFEAVKKPDCYYSIGRENYNQYDLNRNFPDAFEYNNVSRQPETVAVMKWLKTETFVLSANLHGGALVASYPFDNGVQATGALYSRSLTPDDDVFQYLAHTYASRNPNMKKGDECKNKMNFPNGVTNGYSWYPLQGGMQDYNYIWAQCFEITLELSCCKYPREEKLPSFWNNNKASLIEYIKQVHLGVKGQVFDQNGNPLPNVIVEVQDRKHICPYRTNKYGEYYLLLLPGSYIINVTVPGHDPHITKVIIPEKSQNFSALKKDILLPFQGQLDSIPVSNPSCPMIPLYRNLPDHS
B3: ATXN2 (protein, UniProt Q99700 1-1313, looked up)
Ataxin-2: MRSAAAAPRSPAVATESRRFAAARWPGWRSLQRPARRSGRGGGGAAPGPYPSAAPPPPGPGPPPSRQSSPPSASDCFGSNGNGGGAFRPGSRRLLGLGGPPRPFVVLLLPLASPGAPPAAPTRASPLGARASPPRSGVSLARPAPGCPRPACEPVYGPLTMSLKPQQQQQQQQQQQQQQQQQQQQQQQPPPAAANVRKPGGSGLLASPAAAPSPSSSSVSSSSATAPSSVVAATSGGGRPGLGRGRNSNKGLPQSTISFDGIYANMRMVHILTSVVGSKCEVQVKNGGIYEGVFKTYSPKCDLVLDAAHEKSTESSSGPKREEIMESILFKCSDFVVVQFKDMDSSYAKRDAFTDSAISAKVNGEHKEKDLEPWDAGELTANEELEALENDVSNGWDPNDMFRYNEENYGVVSTYDSSLSSYTVPLERDNSEEFLKREARANQLAEEIESSAQYKARVALENDDRSEEEKYTAVQRNSSEREGHSINTRENKYIPPGQRNREVISWGSGRQNSPRMGQPGSGSMPSRSTSHTSDFNPNSGSDQRVVNGGVPWPSPCPSPSSRPPSRYQSGPNSLPPRAATPTRPPSRPPSRPSRPPSHPSAHGSPAPVSTMPKRMSSEGPPRMSPKAQRHPRNHRVSAGRGSISSGLEFVSHNPPSEAATPPVARTSPSGGTWSSVVSGVPRLSPKTHRPRSPRQNSIGNTPSGPVLASPQAGIIPTEAVAMPIPAASPTPASPASNRAVTPSSEAKDSRLQDQRQNSPAGNKENIKPNETSPSFSKAENKGISPVVSEHRKQIDDLKKFKNDFRLQPSSTSESMDQLLNKNREGEKSRDLIKDKIEPSAKDSFIENSSSNCTSGSSKPNSPSISPSILSNTEHKRGPEVTSQGVQTSSPACKQEKDDKEEKKDAAEQVRKSTLNPNAKEFNPRSFSQPKPSTTPTSPRPQAQPSPSMVGHQQPTPVYTQPVCFAPNMMYPVPVSPGVQPLYPIPMTPMPVNQAKTYRAVPNMPQQRQDQHHQSAMMHPASAAGPPIAATPPAYSTQYVAYSPQQFPNQPLVQHVPHYQSQHPHVYSPVIQGNARMMAPPTHAQPGLVSSSATQYGAHEQTHAMYACPKLPYNKETSPSFYFAISTGSLAQQYAHPNATLHPHTPHPQPSATPTGQQQSQHGGSHPAPSPVQHHQHQAAQALHLASPQQQSAIYHAGLAPTPPSMTPASNTQSPQNSFPAAQQTVFTIHPSHVQPAYTNPPHMAHVPQAHVQSGMVPSHPTAHAPMMLMTTQPPGGPQAALAQSALQPIPVSTTAHFPYMTHPSVQAHHQQQL
B4: OSBPL8 (protein, UniProt Q9BZF1 1-889, looked up)
Oxysterol-binding …: MEGGLADGEPDRTSLLGDSKDVLGPSTVVANSDESQLLTPGKMSQRQGKEAYPTPTKDLHQPSLSPASPHSQGFERGKEDISQNKDESSLSMSKSKSESKLYNGSEKDSSTSSKLTKKESLKVQKKNYREEKKRATKELLSTITDPSVIVMADWLKIRGTLKSWTKLWCVLKPGVLLIYKTQKNGQWVGTVLLNACEIIERPSKKDGFCFKLFHPLEQSIWAVKGPKGEAVGSITQPLPSSYLIIRATSESDGRCWMDALELALKCSSLLKRTMIREGKEHDLSVSSDSTHVTFYGLLRANNLHSGDNFQLNDSEIERQHFKDQDMYSDKSDKENDQEHDESDNEVMGKSEESDTDTSERQDDSYIEPEPVEPLKETTYTEQSHEELGEAGEASQTETVSEENKSLIWTLLKQVRPGMDLSKVVLPTFILEPRSFLDKLSDYYYHADFLSEAALEENPYFRLKKVVKWYLSGFYKKPKGLKKPYNPILGETFRCLWIHPRTNSKTFYIAEQVSHHPPISAFYVSNRKDGFCLSGSILAKSKFYGNSLSAILEGEARLTFLNRGEDYVMTMPYAHCKGILYGTMTLELGGTVNITCQKTGYSAILEFKLKPFLGSSDCVNQISGKLKLGKEVLATLEGHWDSEVFITDKKTDNSEVFWNPTPDIKQWRLIRHTVKFEEQGDFESEKLWQRVTRAINAKDQTEATQEKYVLEEAQRQAARDRKTKNEEWSCKLFELDPLTGEWHYKFADTRPWDPLNDMIQFEKDGVIQTKVKHRTPMVSVPKMKHKPTRQQKKVAKGYSSPEPDIQDSSGSEAQSVKPSTRRKKGIELGDIQSSIESIKQTQEEIKRNIMALRNHLVSSTPATDYFLQQKDYFIIFLLILLQVIINFMFK

system: GFP-14-3-3β and its binding proteins; test: GFP-14-3-3β co-IP with LC-MS/MS label-free quantification, untreated versus PP1c-treated; design: species or system human; settings: PP1 vs untreated; LFQ intensities; 3 replicates each

Difference (log2), PP1 vs untreated [log2] | Molecule
0.5838 | B1
0.5874 | B2
0.5906 | B3
0.5791 | B4

system: GFP-14-3-3β; test: GFP-14-3-3β co-IP with LC-MS/MS, untreated GFP-14-3-3β versus GFP control (14-3-3 interactome); type: binding, human; settings: untreated vs GFP; LFQ intensities; 3 replicates each

Molecule | Difference (log2), untreated vs GFP [log2]
B1 | -1.083
B2 | -1.988
B3 | 1.35
B4 | 0.9951
